To fix the notation:
B1: Can-SL501-VH3 D108E / Can-SL501-VL2 (antibody, V domains shown)
VH: EVQLVESGGDLVKPGGSLRLSCVASGFTFSSYGMHWVRQAPGKELEWVAVISYDGSIKYYADAVKGRFTISRDNAKNTLYLQMNSLRAEDTAVYYCARTGEYSGYDTEPQYSWGQGTTVTVSS
VL: EIVMTQSPGSLAGSAGESVSINCRASQGIGDDLGWYQQKPGERPKLLIYGTSTLQSGVPARFSSSGSGTDFTLTINNLQAEDVGDYYCLQDSNYPLTFGAGTK
B2: Can-SL501-VH3 Q110S / Can-SL501-VL2 (antibody, V domains shown)
VH: EVQLVESGGDLVKPGGSLRLSCVASGFTFSSYGMHWVRQAPGKELEWVAVISYDGSIKYYADAVKGRFTISRDNAKNTLYLQMNSLRAEDTAVYYCARTGEYSGYDTDPSYSWGQGTTVTVSS
VL: EIVMTQSPGSLAGSAGESVSINCRASQGIGDDLGWYQQKPGERPKLLIYGTSTLQSGVPARFSSSGSGTDFTLTINNLQAEDVGDYYCLQDSNYPLTFGAGTK
B3: Can-SL501-VH3 D108N / Can-SL501-VL2 (antibody, V domains shown)
VH: EVQLVESGGDLVKPGGSLRLSCVASGFTFSSYGMHWVRQAPGKELEWVAVISYDGSIKYYADAVKGRFTISRDNAKNTLYLQMNSLRAEDTAVYYCARTGEYSGYDTNPQYSWGQGTTVTVSS
VL: EIVMTQSPGSLAGSAGESVSINCRASQGIGDDLGWYQQKPGERPKLLIYGTSTLQSGVPARFSSSGSGTDFTLTINNLQAEDVGDYYCLQDSNYPLTFGAGTK
B4: Can-SL501-VH3 D108Q / Can-SL501-VL2 (antibody, V domains shown)
VH: EVQLVESGGDLVKPGGSLRLSCVASGFTFSSYGMHWVRQAPGKELEWVAVISYDGSIKYYADAVKGRFTISRDNAKNTLYLQMNSLRAEDTAVYYCARTGEYSGYDTQPQYSWGQGTTVTVSS
VL: EIVMTQSPGSLAGSAGESVSINCRASQGIGDDLGWYQQKPGERPKLLIYGTSTLQSGVPARFSSSGSGTDFTLTINNLQAEDVGDYYCLQDSNYPLTFGAGTK
B5: Can-SL501-VH3 P109S / Can-SL501-VL2 (antibody, V domains shown)
VH: EVQLVESGGDLVKPGGSLRLSCVASGFTFSSYGMHWVRQAPGKELEWVAVISYDGSIKYYADAVKGRFTISRDNAKNTLYLQMNSLRAEDTAVYYCARTGEYSGYDTDSQYSWGQGTTVTVSS
VL: EIVMTQSPGSLAGSAGESVSINCRASQGIGDDLGWYQQKPGERPKLLIYGTSTLQSGVPARFSSSGSGTDFTLTINNLQAEDVGDYYCLQDSNYPLTFGAGTK
B6: Can-SL501-VH3 D108H / Can-SL501-VL2 (antibody, V domains shown)
VH: EVQLVESGGDLVKPGGSLRLSCVASGFTFSSYGMHWVRQAPGKELEWVAVISYDGSIKYYADAVKGRFTISRDNAKNTLYLQMNSLRAEDTAVYYCARTGEYSGYDTHPQYSWGQGTTVTVSS
VL: EIVMTQSPGSLAGSAGESVSINCRASQGIGDDLGWYQQKPGERPKLLIYGTSTLQSGVPARFSSSGSGTDFTLTINNLQAEDVGDYYCLQDSNYPLTFGAGTK
B7: Can-SL501-VH3 P109Y / Can-SL501-VL2 (antibody, V domains shown)
VH: EVQLVESGGDLVKPGGSLRLSCVASGFTFSSYGMHWVRQAPGKELEWVAVISYDGSIKYYADAVKGRFTISRDNAKNTLYLQMNSLRAEDTAVYYCARTGEYSGYDTDYQYSWGQGTTVTVSS
VL: EIVMTQSPGSLAGSAGESVSINCRASQGIGDDLGWYQQKPGERPKLLIYGTSTLQSGVPARFSSSGSGTDFTLTINNLQAEDVGDYYCLQDSNYPLTFGAGTK
B8: Can-SL501-VH3 D108S / Can-SL501-VL2 (antibody, V domains shown)
VH: EVQLVESGGDLVKPGGSLRLSCVASGFTFSSYGMHWVRQAPGKELEWVAVISYDGSIKYYADAVKGRFTISRDNAKNTLYLQMNSLRAEDTAVYYCARTGEYSGYDTSPQYSWGQGTTVTVSS
VL: EIVMTQSPGSLAGSAGESVSINCRASQGIGDDLGWYQQKPGERPKLLIYGTSTLQSGVPARFSSSGSGTDFTLTINNLQAEDVGDYYCLQDSNYPLTFGAGTK
B9: Can-SL501-VH3 P109F / Can-SL501-VL2 (antibody, V domains shown)
VH: EVQLVESGGDLVKPGGSLRLSCVASGFTFSSYGMHWVRQAPGKELEWVAVISYDGSIKYYADAVKGRFTISRDNAKNTLYLQMNSLRAEDTAVYYCARTGEYSGYDTDFQYSWGQGTTVTVSS
VL: EIVMTQSPGSLAGSAGESVSINCRASQGIGDDLGWYQQKPGERPKLLIYGTSTLQSGVPARFSSSGSGTDFTLTINNLQAEDVGDYYCLQDSNYPLTFGAGTK
B10: Can-SL501-VH3 Q110R / Can-SL501-VL2 (antibody, V domains shown)
VH: EVQLVESGGDLVKPGGSLRLSCVASGFTFSSYGMHWVRQAPGKELEWVAVISYDGSIKYYADAVKGRFTISRDNAKNTLYLQMNSLRAEDTAVYYCARTGEYSGYDTDPRYSWGQGTTVTVSS
VL: EIVMTQSPGSLAGSAGESVSINCRASQGIGDDLGWYQQKPGERPKLLIYGTSTLQSGVPARFSSSGSGTDFTLTINNLQAEDVGDYYCLQDSNYPLTFGAGTK
B11: Can-SL501-VH3 P109H / Can-SL501-VL2 (antibody, V domains shown)
VH: EVQLVESGGDLVKPGGSLRLSCVASGFTFSSYGMHWVRQAPGKELEWVAVISYDGSIKYYADAVKGRFTISRDNAKNTLYLQMNSLRAEDTAVYYCARTGEYSGYDTDHQYSWGQGTTVTVSS
VL: EIVMTQSPGSLAGSAGESVSINCRASQGIGDDLGWYQQKPGERPKLLIYGTSTLQSGVPARFSSSGSGTDFTLTINNLQAEDVGDYYCLQDSNYPLTFGAGTK
B12: Can-SL501-VH3 D108T / Can-SL501-VL2 (antibody, V domains shown)
VH: EVQLVESGGDLVKPGGSLRLSCVASGFTFSSYGMHWVRQAPGKELEWVAVISYDGSIKYYADAVKGRFTISRDNAKNTLYLQMNSLRAEDTAVYYCARTGEYSGYDTTPQYSWGQGTTVTVSS
VL: EIVMTQSPGSLAGSAGESVSINCRASQGIGDDLGWYQQKPGERPKLLIYGTSTLQSGVPARFSSSGSGTDFTLTINNLQAEDVGDYYCLQDSNYPLTFGAGTK
B13: Can-SL501-VH3 P109W / Can-SL501-VL2 (antibody, V domains shown)
VH: EVQLVESGGDLVKPGGSLRLSCVASGFTFSSYGMHWVRQAPGKELEWVAVISYDGSIKYYADAVKGRFTISRDNAKNTLYLQMNSLRAEDTAVYYCARTGEYSGYDTDWQYSWGQGTTVTVSS
VL: EIVMTQSPGSLAGSAGESVSINCRASQGIGDDLGWYQQKPGERPKLLIYGTSTLQSGVPARFSSSGSGTDFTLTINNLQAEDVGDYYCLQDSNYPLTFGAGTK
B14: Can-SL501-VH3 P109G / Can-SL501-VL2 (antibody, V domains shown)
VH: EVQLVESGGDLVKPGGSLRLSCVASGFTFSSYGMHWVRQAPGKELEWVAVISYDGSIKYYADAVKGRFTISRDNAKNTLYLQMNSLRAEDTAVYYCARTGEYSGYDTDGQYSWGQGTTVTVSS
VL: EIVMTQSPGSLAGSAGESVSINCRASQGIGDDLGWYQQKPGERPKLLIYGTSTLQSGVPARFSSSGSGTDFTLTINNLQAEDVGDYYCLQDSNYPLTFGAGTK
B15: Can-SL501-VH3 D108P / Can-SL501-VL2 (antibody, V domains shown)
VH: EVQLVESGGDLVKPGGSLRLSCVASGFTFSSYGMHWVRQAPGKELEWVAVISYDGSIKYYADAVKGRFTISRDNAKNTLYLQMNSLRAEDTAVYYCARTGEYSGYDTPPQYSWGQGTTVTVSS
VL: EIVMTQSPGSLAGSAGESVSINCRASQGIGDDLGWYQQKPGERPKLLIYGTSTLQSGVPARFSSSGSGTDFTLTINNLQAEDVGDYYCLQDSNYPLTFGAGTK

For the assay, the target named is T1, TGFβ1 (R&D Systems).
T1 construct: also called TGFB1
T1 sequence (P01137 279-390): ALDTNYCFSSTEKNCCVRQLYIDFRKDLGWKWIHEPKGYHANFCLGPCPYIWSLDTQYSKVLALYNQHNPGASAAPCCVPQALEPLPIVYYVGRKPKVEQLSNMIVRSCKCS
Description: single point SPR.
As a reminder, the Kd is the constant that tells how readily two partners part at equilibrium. On to B1, for which binding was put at a Kd of 0.341 nM. In the case of B2 it was 6.4 nM. Then B3, with 9.68 nM. Then B4, with 1.25 nM; and B5, with 4.97 nM; and B6, with 1.83 nM. As to B7, the Kd was 8.4 nM. Then B8, with 0.724 nM; and B9, with 0.534 nM.

In the case of B10, binding was characterised by a dissociation constant (Kd) of 8.38 nM. In the case of B11 it was 1.35 nM. Then B12, with 0.798 nM. Then B13, with 6.9 nM. The molecule B14 returned a Kd of 1.59 nM. This Kd lies about 4.3-fold lower than the previous one.

As for B15, the Kd came to 3.51 nM.

The record behind these values is US20220119513A1 (ZOETIS SERVICES, published 2022).
